From publication PMC6843132, “The Plant NF-Y DNA Matrix In Vitro and In Vivo”

Experiments:
[1] = target: T1, AtNF-YA6;AtNF-YB2;AtNF-YC3 (Arabidopsis thaliana;Arabidopsis …, UniProt Q9LVJ7;Q9FGJ3;Q9ZVL3 170-237;24-116;55-148, ||); test: EMSA; 12 mM Tris-HCl pH 8.0, 50 mM NaCl, 50 mM KCl, 5 mM MgCl2, 0.5 mM EDTA, 12% glycerol, 0.2 mg/mL BSA, 2.5 mM DTT, 100 ng poly(dA:dT), 20 nM Cy5 probe, 30 C 30 min; 6% PAGE in 0.25X TBE; settings: protein: recombinant;recombinant;recombinant; tags: 6His;6His removed by thrombin;; copies: 1;1;1; label: Cy5 5'
T1 sequence (Q9LVJ7 170-237, chain 1 of 3): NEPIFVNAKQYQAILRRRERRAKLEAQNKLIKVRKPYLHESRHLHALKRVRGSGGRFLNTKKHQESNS
T1 sequence (Q9FGJ3 24-116, chain 2 of 3): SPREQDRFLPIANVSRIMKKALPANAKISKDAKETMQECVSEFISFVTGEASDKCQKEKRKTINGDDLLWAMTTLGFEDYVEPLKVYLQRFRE
T1 sequence (Q9ZVL3 55-148, chain 3 of 3): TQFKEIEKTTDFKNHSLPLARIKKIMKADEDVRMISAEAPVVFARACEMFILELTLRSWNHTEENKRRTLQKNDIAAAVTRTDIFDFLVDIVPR

[2] = target: AtNF-YA2;AtNF-YB2;AtNF-YC3 (Arabidopsis thaliana;Arabidopsis …, UniProt Q9M9X4;Q9FGJ3;Q9ZVL3 134-207;24-116;55-148, ||); test: EMSA; efficiency similar to NF-YA6 trimer; 12 mM Tris-HCl pH 8.0, 50 mM NaCl, 50 mM KCl, 5 mM MgCl2, 0.5 mM EDTA, 12% glycerol, 0.2 mg/mL BSA, 2.5 mM DTT, 100 ng poly(dA:dT), 20 nM Cy5 probe, 30 C 30 min; 6% PAGE in 0.25X TBE; settings: protein: recombinant;recombinant;recombinant; tags: 6His;6His removed by thrombin;; copies: 1;1;1; label: Cy5 5'
AtNF-YA2;AtNF-YB2;AtNF-YC3, sequence (Q9M9X4 134-207, chain 1 of 3): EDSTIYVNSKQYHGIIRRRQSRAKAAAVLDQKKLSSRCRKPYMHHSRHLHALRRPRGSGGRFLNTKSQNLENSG
AtNF-YA2;AtNF-YB2;AtNF-YC3, sequence (Q9FGJ3 24-116, chain 2 of 3): as the sequence (Q9FGJ3 24-116, chain 2 of 3) above
AtNF-YA2;AtNF-YB2;AtNF-YC3, sequence (Q9ZVL3 55-148, chain 3 of 3): as the sequence (Q9ZVL3 55-148, chain 3 of 3) above

[3] = target: T1, AtNF-YA6;AtNF-YB2;AtNF-YC3; test: competition EMSA; similar rates, WT A least preferred; 12 mM Tris-HCl pH 8.0, 50 mM NaCl, 50 mM KCl, 5 mM MgCl2, 0.5 mM EDTA, 12% glycerol, 0.2 mg/mL BSA, 2.5 mM DTT, 100 ng poly(dA:dT), 20 nM Cy5 probe, 30 C 30 min; 6% PAGE in 0.25X TBE; settings: protein: recombinant;recombinant;recombinant; tags: 6His;6His removed by thrombin;; copies: 1;1;1
[4] = target: T1, AtNF-YA6;AtNF-YB2;AtNF-YC3; test: competition EMSA; higher affinity; 12 mM Tris-HCl pH 8.0, 50 mM NaCl, 50 mM KCl, 5 mM MgCl2, 0.5 mM EDTA, 12% glycerol, 0.2 mg/mL BSA, 2.5 mM DTT, 100 ng poly(dA:dT), 20 nM Cy5 probe, 30 C 30 min; 6% PAGE in 0.25X TBE; settings: protein: recombinant;recombinant;recombinant; tags: 6His;6His removed by thrombin;; copies: 1;1;1
[5] = target: T1, AtNF-YA6;AtNF-YB2;AtNF-YC3; test: competition EMSA; better than WT; 12 mM Tris-HCl pH 8.0, 50 mM NaCl, 50 mM KCl, 5 mM MgCl2, 0.5 mM EDTA, 12% glycerol, 0.2 mg/mL BSA, 2.5 mM DTT, 100 ng poly(dA:dT), 20 nM Cy5 probe, 30 C 30 min; 6% PAGE in 0.25X TBE; settings: protein: recombinant;recombinant;recombinant; tags: 6His;6His removed by thrombin;; copies: 1;1;1
[6] = target: T1, AtNF-YA6;AtNF-YB2;AtNF-YC3; test: competition EMSA; highest affinity at -3; 12 mM Tris-HCl pH 8.0, 50 mM NaCl, 50 mM KCl, 5 mM MgCl2, 0.5 mM EDTA, 12% glycerol, 0.2 mg/mL BSA, 2.5 mM DTT, 100 ng poly(dA:dT), 20 nM Cy5 probe, 30 C 30 min; 6% PAGE in 0.25X TBE; settings: protein: recombinant;recombinant;recombinant; tags: 6His;6His removed by thrombin;; copies: 1;1;1
[7] = target: T1, AtNF-YA6;AtNF-YB2;AtNF-YC3; test: competition EMSA; preferred over WT; 12 mM Tris-HCl pH 8.0, 50 mM NaCl, 50 mM KCl, 5 mM MgCl2, 0.5 mM EDTA, 12% glycerol, 0.2 mg/mL BSA, 2.5 mM DTT, 100 ng poly(dA:dT), 20 nM Cy5 probe, 30 C 30 min; 6% PAGE in 0.25X TBE; settings: protein: recombinant;recombinant;recombinant; tags: 6His;6His removed by thrombin;; copies: 1;1;1
[8] = target: T1, AtNF-YA6;AtNF-YB2;AtNF-YC3; test: competition EMSA; 12 mM Tris-HCl pH 8.0, 50 mM NaCl, 50 mM KCl, 5 mM MgCl2, 0.5 mM EDTA, 12% glycerol, 0.2 mg/mL BSA, 2.5 mM DTT, 100 ng poly(dA:dT), 20 nM Cy5 probe, 30 C 30 min; 6% PAGE in 0.25X TBE; settings: protein: recombinant;recombinant;recombinant; tags: 6His;6His removed by thrombin;; copies: 1;1;1
[9] = target: T1, AtNF-YA6;AtNF-YB2;AtNF-YC3; test: competition EMSA; equal to WT; 12 mM Tris-HCl pH 8.0, 50 mM NaCl, 50 mM KCl, 5 mM MgCl2, 0.5 mM EDTA, 12% glycerol, 0.2 mg/mL BSA, 2.5 mM DTT, 100 ng poly(dA:dT), 20 nM Cy5 probe, 30 C 30 min; 6% PAGE in 0.25X TBE; settings: protein: recombinant;recombinant;recombinant; tags: 6His;6His removed by thrombin;; copies: 1;1;1
[10] = target: T1, AtNF-YA6;AtNF-YB2;AtNF-YC3; test: competition EMSA; purines preferred at +2; 12 mM Tris-HCl pH 8.0, 50 mM NaCl, 50 mM KCl, 5 mM MgCl2, 0.5 mM EDTA, 12% glycerol, 0.2 mg/mL BSA, 2.5 mM DTT, 100 ng poly(dA:dT), 20 nM Cy5 probe, 30 C 30 min; 6% PAGE in 0.25X TBE; settings: protein: recombinant;recombinant;recombinant; tags: 6His;6His removed by thrombin;; copies: 1;1;1

B1: CAB2 (-65) CCAAT 31 bp probe (dsDNA)
DNA 1: CTTAAAATCCAATGAATGAACAGATAAAGAT
DNA 2: ATCTTTATCTGTTCATTCATTGGATTTTAAG
B1: binds [1]; binds [2].

B2: CAB2 A15G (dsDNA)
DNA 1: CTTAAAATCCAATGAGTGAACAGATAAAGAT
DNA 2: ATCTTTATCTGTTCACTCATTGGATTTTAAG
B2: binds [3].

B3: CAB2 T16A (dsDNA)
DNA 1: CTTAAAATCCAATGAAAGAACAGATAAAGAT
DNA 2: ATCTTTATCTGTTCTTTCATTGGATTTTAAG
B3: binds [4].

B4: CAB2 A6C (dsDNA)
DNA 1: CTTAAACTCCAATGAATGAACAGATAAAGAT
DNA 2: ATCTTTATCTGTTCATTCATTGGAGTTTAAG
B4: binds [5].

B5: CAB2 A5T (dsDNA)
DNA 1: CTTAATATCCAATGAATGAACAGATAAAGAT
DNA 2: ATCTTTATCTGTTCATTCATTGGATATTAAG
B5: binds [6].

B6: CAB2 T7A (dsDNA)
DNA 1: CTTAAAAACCAATGAATGAACAGATAAAGAT
DNA 2: ATCTTTATCTGTTCATTCATTGGTTTTTAAG
B6: binds [7].

B7: CAB2 WT competitor 31 bp (dsDNA)
DNA 1: CTTAAAATCCAATGAATGAACAGATAAAGAT
DNA 2: ATCTTTATCTGTTCATTCATTGGATTTTAAG
B7: binds [8].

B8: CAB2 A15C (dsDNA)
DNA 1: CTTAAAATCCAATGACTGAACAGATAAAGAT
DNA 2: ATCTTTATCTGTTCAGTCATTGGATTTTAAG
B8: binds [3].

B9: CAB2 A6T (dsDNA)
DNA 1: CTTAAATTCCAATGAATGAACAGATAAAGAT
DNA 2: ATCTTTATCTGTTCATTCATTGGAATTTAAG
B9: binds [9].

B10: CAB2 G13C (dsDNA)
DNA 1: CTTAAAATCCAATCAATGAACAGATAAAGAT
DNA 2: ATCTTTATCTGTTCATTGATTGGATTTTAAG
B10: binds [7].

B11: CAB2 A15T (dsDNA)
DNA 1: CTTAAAATCCAATGATTGAACAGATAAAGAT
DNA 2: ATCTTTATCTGTTCAATCATTGGATTTTAAG
B11: binds [3].

B12: CAB2 A14G (dsDNA)
DNA 1: CTTAAAATCCAATGGATGAACAGATAAAGAT
DNA 2: ATCTTTATCTGTTCATCCATTGGATTTTAAG
B12: binds [10].

B13: CAB2 A6G (dsDNA)
DNA 1: CTTAAAGTCCAATGAATGAACAGATAAAGAT
DNA 2: ATCTTTATCTGTTCATTCATTGGACTTTAAG
B13: binds [5].

B14: CAB2 T7G (dsDNA)
DNA 1: CTTAAAAGCCAATGAATGAACAGATAAAGAT
DNA 2: ATCTTTATCTGTTCATTCATTGGCTTTTAAG
B14: binds [7].
